Broadly, the Kd is the concentration at which binding is half-saturated.

Three molecules from paper PMC6547619, “Development of an anti‐BAG3 humanized antibody for treatment of pancreatic cancer” (Molecular Oncology, 2019) can be followed below.

Numbering of substitutions follows the chain as printed.

Conditions in all cases: both partners purified
Assay [1] addresses T1, human recombinant BAG3 protein (Homo sapiens, UniProt O95817).
T1 construct: the cleavage released the full-length polypeptide; The ELISA methods say only 'human recombinant BAG3 protein'; For the flow cytometry it was labelled with FITC (FluoroTag FITC conjugation kit); also called rBAG3; full-length BAG3; not shown: biotinylated tag (AviTag, from the vector pAViTag-N N-His SUMO), N-terminal, cleaved; His, N-terminal, cleaved; SUMO, N-terminal, cleaved
As to the kind of experiment: ELISA; direct ELISA; plates coated with human recombinant BAG3 (1 μg/mL in PBS); humanized antibodies in scalar dilutions, 500 to 15.6 ng/mL; HRP anti-human IgG, O.D. 450 nm.

Assay [2] deals with T2, E. coli rBAG3 (Abcam) (Homo sapiens (assumed; species of …, UniProt O95817).
T2 construct: BAG3 (BCL2-associated athanogene 3), recombinant, made in E. coli, bought from Abcam; Antigen of the SPR experiments only; no catalogue number is printed; also called antigen; source: bought: Abcam (E. coli rBAG3)
Briefly: SPR; Biacore 2000, 25 °C; humanized variants captured on an anti-human Fc antibody covalently coupled on a CM5 chip; rBAG3 flowed at variable concentrations.

The target in assay [3] is T2, E. coli rBAG3 (Abcam). Briefly: SPR; Biacore 2000, 25 °C; AC-2 captured on an anti-mouse Fc antibody covalently coupled on a CM5 chip; rBAG3 flowed at 0.39 to 200 nM; 2-state reaction model. On the technique in general: SPR reads the build-up and loss of mass on a sensor chip optically.
The target of assay [4] is T3, murine rBAG3 (Mus musculus, UniProt Q9JLV1).
T3 construct: the cleavage released the full-length polypeptide; also called murine form of BAG3; not shown: biotinylated tag (AviTag, from the vector pAViTag-N N-His SUMO), N-terminal, cleaved; His, N-terminal, cleaved; SUMO, N-terminal, cleaved
Briefly: immunoprecipitation; BAG3-H2L4 used to immunoprecipitate murine rBAG3; immunoblot with a rabbit polyclonal anti-BAG3. On the technique in general: Immunoblotting shows a protein as a band on a membrane.

T2 sequence (O95817 whole entry): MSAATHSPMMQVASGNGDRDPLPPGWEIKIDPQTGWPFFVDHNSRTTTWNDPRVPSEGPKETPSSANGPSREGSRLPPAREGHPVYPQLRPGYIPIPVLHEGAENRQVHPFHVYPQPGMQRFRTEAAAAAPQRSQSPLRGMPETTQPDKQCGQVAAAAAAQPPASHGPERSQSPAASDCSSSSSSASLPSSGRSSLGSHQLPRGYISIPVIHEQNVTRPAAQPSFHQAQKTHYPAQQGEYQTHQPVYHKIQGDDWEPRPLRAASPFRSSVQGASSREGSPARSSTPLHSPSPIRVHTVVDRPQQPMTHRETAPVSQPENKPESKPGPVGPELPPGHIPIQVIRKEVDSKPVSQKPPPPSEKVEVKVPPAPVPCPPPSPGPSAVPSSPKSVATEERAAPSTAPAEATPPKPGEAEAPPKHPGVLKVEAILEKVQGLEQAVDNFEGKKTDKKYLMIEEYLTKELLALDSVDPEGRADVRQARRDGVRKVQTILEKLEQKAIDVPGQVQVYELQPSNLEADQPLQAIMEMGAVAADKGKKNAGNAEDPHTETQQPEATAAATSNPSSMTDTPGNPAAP
T1 sequence (O95817 whole entry): as above
T3 sequence (Q9JLV1 whole entry): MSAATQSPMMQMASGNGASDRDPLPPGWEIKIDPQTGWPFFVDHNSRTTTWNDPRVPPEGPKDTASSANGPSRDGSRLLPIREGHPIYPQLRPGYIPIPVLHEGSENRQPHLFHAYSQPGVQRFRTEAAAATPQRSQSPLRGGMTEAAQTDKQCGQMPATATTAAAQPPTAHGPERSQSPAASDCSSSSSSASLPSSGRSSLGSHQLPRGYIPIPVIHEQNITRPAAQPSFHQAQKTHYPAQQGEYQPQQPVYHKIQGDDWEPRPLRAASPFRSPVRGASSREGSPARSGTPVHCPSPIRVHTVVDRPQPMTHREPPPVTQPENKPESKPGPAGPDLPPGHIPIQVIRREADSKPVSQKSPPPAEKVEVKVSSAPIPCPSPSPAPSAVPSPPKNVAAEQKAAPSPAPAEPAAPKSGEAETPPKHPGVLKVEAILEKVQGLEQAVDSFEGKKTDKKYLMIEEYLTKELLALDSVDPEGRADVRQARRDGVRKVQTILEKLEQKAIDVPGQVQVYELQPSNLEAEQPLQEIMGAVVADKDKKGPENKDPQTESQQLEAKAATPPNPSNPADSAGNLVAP

B1: BAG3-H4L2 (antibody, V domains shown)
VH: EVQLVQSGAEVKKPGATVKISCKVSGFNIKDTYMYWVQQAPGKGLEWMGGVDPANGNTRYDPKFQGRVTITADTSTDTAYMELSSLRSEDTAVYYCARDGAMDYWGQGTLVTVSS
VL: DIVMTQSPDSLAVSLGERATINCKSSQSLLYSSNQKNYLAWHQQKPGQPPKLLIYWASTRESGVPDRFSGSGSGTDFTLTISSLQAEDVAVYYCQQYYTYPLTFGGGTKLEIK
notes: humanized heavy chain variant H4: CDRs of AC-2 (humanized light chain variant L2: CDRs of AC-2 (IgG1, kappa)); source: CHO, transiently transfected, purified from supernatant (Protein A FPLC), Evitria AG
For the molecule B1, the binding result in assay [1] and in assay [2] was “binds” throughout.

B2: murine anti-BAG3 antibody AC-2 (antibody, V domains shown)
VH: EVQLQQSGAELVKPGASVKLSCTASGFNIKDTYMYWVKQRPEQGLEWIGGVDPANGNTRYDPKFQGKATLTADTSSSTAYLQLSSLTSEDTAVYYCGRDGAMDYWGQGTSVTVSS
VL: DIVMSQSPSSLAVSVGEKVTMSCKSSQSLLYSSNQKNYLAWHQQKPGQSPKLLIYWASTRESGVPDRFTGSGSGTDFTLTISSVKAEDLAIYYCQQYYTYPLTFGAGTKLELK
notes: murine heavy chain; murine light chain; also called mAb AC-2; anti-BAG3 clone AC-2; source: mouse hybridoma clone AC-2 (supernatant in the peptide ELISA)
For B2, in assay [3], the affinity, expressed as Kd, was 14.4 nM.

B3: BAG3-H2L4 (antibody, V domains shown)
VH: QVQLVQSGAEVKKPGASVKVSCKASGFNIKDTYMYWVRQAPGQGLEWMGGVDPANGNTRYDPKFQGRVTLTRDTSTSTVYMELSSLRSEDTAVYYCGRDGAMDYWGQGTLVTVSS
VL: B2 VL with S5T, S9D, V15L, K18R, V19A, S49P, T69S, V84L, K85Q, L112I
notes: humanized heavy chain variant H2: CDRs of AC-2 (humanized light chain variant L4: CDRs of AC-2 (IgG1, kappa)); also called humanized anti-BAG3 antibody; humanized BAG3-H2L4 antibody; source: CHO, transiently transfected, purified from supernatant (Protein A FPLC), Evitria AG
B3: the binding result in assay [1], in assay [4] and in assay [2] was “binds” each time.
